This assay addresses T1, CATCH(-) peptide.
T1 peptide: Ac-EQEFEFEFEQE-NH2
As to the kind of experiment: gelation on mixing.

B1: CATCH(+) peptide (peptide)
peptide: Ac-QQKFKFKFKQQ-NH2
As for B1, the binding result is “binds”.
